Results reported in US10400249B2, “HPPD variants and methods of use” (priority 2014, dated 2019).
Where a chain is given by its changes, count along the chain named. Names and notes keep the numbering of the source.

B1: FLP136: PfHPPD variant P215L, E335P, G336F (protein)
chain: MADLYENPMGLMGFEFIEFASPTPGTLEPIFEIMGFTKVATHRSKNVHLYRQGEINLILNNEPNSIASYFAAEHGPSVCGMAFRVKDSQKAYNRALELGAQPIHIDTGPMELNLPAIKGIGGAPLYLIDRFGEGSSIYDIDFVYLEGVERNPVGAGLKVIDHLTHNVYRGRMVYWANFYEKLFNFREARYFDIKGEYTGLTSKAMSAPDGMIRILLNEESSKGAGQIEEFLMQFNGEGIQHVAFLTDDLVKTWDALKKIGMRFMTAPPDTYYEMLEGRLPDHGEPVDQLQARGILLDGSSVEGDKRLLLQIFSETLMGPVFFEFIQRKGDDGFGPFNFKALFESIERDQVRRGVLTAD
modifications: HPPD variant - FLP136
notes: PfHPPD variant P215L, E335P, G336F
B2: FLP202: PfHPPD variant P215L, E335P, G336F, A340E (protein)
chain: B1 chain with A340E
modifications: HPPD variant - FLP202
notes: PfHPPD variant P215L, E335P, G336F, A340E

Test system: maize T0 events
Experiment: greenhouse spray test of maize T0 events for tolerance to Cmpd. 4
Type: in vivo
Conditions: Cmpd. 4 at 100 g AI/ha; for number of maize T0 events in herbicide tolerance class 0 (41%-100% damaged leaf area) / number of maize T0 events in herbicide tolerance class 1 (16%-41% damaged leaf area) / number of maize T0 events in herbicide tolerance class 2 (6%-15% damaged leaf area) / number of maize T0 events in herbicide tolerance class 3 (0%-5% damaged leaf area): six days after application
From the text: Constructing the plant expression cassette for stable expression in the maize plant and maize transformation are well known in the art and in this particular example the methods were described and used from the PCT patent publication WO2014/043435 and WO2008/100353. The polynucleotide sequences encoding the HPPD variants in this application have been stacked with a DNA sequence encoding an EPSPS protein variant to confer tolerance to herbicides, which target the EPSPS. The EPSPS gene was isolated and mutated from Arthrobacter globiformis (WO2008/100353) and joined in-frame to a transit peptide sequence to guide translocation of the translated protein to the chloroplast.
The corresponding HPPD variants were cloned with the same promoter, chloroplast transit peptide, and terminator sequence as described for the EPSPS gene expression cassette. The coding sequences for both genes have been codon optimized for maize expression. For the maize transformation ears are best collected 8-12 days after pollination. Embryos were isolated from the ears, and those embryos 0.8-1.5 mm in size were preferred for use in transformation. Embryos were plated scutellum side-up on a suitable incubation media, and incubated overnight at 25° C. in the dark.
However, it was not necessary per se to incubate the embryos overnight. Embryos are contacted with an Agrobacterium strain containing the appropriate vectors having a nucleotide sequence of the present invention for Ti plasmid mediated transfer for about 5-10 min, and then plated onto co-cultivation media for about 3 days (25° C. in the dark). After co-cultivation, explants were transferred to recovery period media for about five days (at 25° C. in the dark). Explants were incubated in selection media with glyphosate for up to eight weeks, depending on the nature and characteristics of the particular selection utilized. After the selection period, the resulting callus were transferred to embryo maturation media, until the formation of mature somatic embryos is observed. The resulting mature somatic embryos were then placed under low light, and the process of regeneration was initiated as known in the art. The resulting shoots were allowed to root on rooting media, and the resulting plants were transferred to nursery pots and propagated as transgenic plants. Plants were routinely analyzed for the expression and presence of the transgenes using the ELISA protein detection method. Only plants recovering in the selection media and having a detectable HPPD transgene protein expression were used for the herbicide tolerance analysis.
Regenerated T0 events from tissue culture were transplanted into two inch square pots with synthetic soil (Fafard® Mix) and controlled-released fertilizer (Haifa Multicote™; polymer-coated controlled-release fertilizer, NPK Pro 18-6-12+ Micronutrients) and cultivated in the greenhouse (GH) under supplementary high pressure sodium light for 12 days at a maximum of 30° C. during the day and a minimum of 22° C. at night. Fully recovered plants were transferred into five inch square pots filled with synthetic soil and control released fertilizer under the same environmental conditions. After seven days the T0 plants have been sprayed with 2-chloro-3-(methylsulfanyl)-N-(1-methyl-1H-tetrazol-5-yl)-4-(trifluoromethyl)benzamide (Cmpd. 4); at agronomic relevant concentration of 100 g AI/ha (with “g AI/ha” meaning “gram of active ingredient per hectare”) prepared from a WP20 (wettable powder 20%) formulation supplemented with esterified vegetable oil mixture (Hasten™ spray adjuvants, 0.578% v/v) and ammonium sulphate (AMS, 0.97% w/v). The herbicide treatment was conducted in a DeVries Tracker Sprayer system with standard application protocols, which are well known in the art. As a spray control T0 events have been sprayed with the adjuvant mixture lacking the herbicide. […]

Row | Molecule | share of tested maize events with good to high tolerance, 15% or less bleached leaf area | share of tested maize events with less than 5% or no visual leaf damage [%] | number of maize T0 events in herbicide tolerance class 0 (41%-100% damaged leaf area) | number of maize T0 events in herbicide tolerance class 1 (16%-41% damaged leaf area) | number of maize T0 events in herbicide tolerance class 2 (6%-15% damaged leaf area) | number of maize T0 events in herbicide tolerance class 3 (0%-5% damaged leaf area)
1 | B1 | Approximately 40% | ~15 | 13 | 37 | 21 | 13
2 | B2 | More than 30% | ~13 | 12 | 49 | 16 | 12
